The data set can be described thus: soluble on expression in E. coli; label from the status in PepcDB or PDB records.
Take “MAHHHHHHMAYVFDKITKTVTIYMGNTKSKIVLGGLWQRGMKGYIIYDVARQGTPPDTNFAPTTGWSMILVSSPNVRNYDGWATQVKASRIIMNCPDEMDVKAMCAWMKRGLDTDKQAGYWKMVEKHMEKVGPIPRHIFDADEYGERTWDATSALRWINIGEQRKYFTKGGEQWYSEDLSHKLLKIVRVREDGAFEDLSNAPICDYLGVLTVSRLAKALSPNDILFLVLGMKNVVQSAALKKYGLNVFLSVEFVTSIVTDLKELQPPSPSEPRSSVLTLNPHGYPTEAAAITELKFIDRPQELKYRVLYIPTFPTFPLVDGFFFVDSPRKTLVGLQMTTASAHHTTASTVRQFTECMAAYFDDWDEFSRDMSWDMIYIQHAASKPMKKRQKCLYVDSNNKTDAEKKIVAFWNGKVHQYQFVLTTDF”: the “soluble on expression in E. coli” value is reported as “not soluble”.

On to “MIIYVSACRHAVCSETVLDVLGNVSEKMKKGIELARSVAHLELCQDKITFQRRYVAIEFDEDELLDGKSSILAVAVSIYFAIVGLRVPSDLMITGSLNLKGTVIPISGLDKTVKVIKLRITLSGSSSA”, for which the “soluble on expression in E. coli” value was “not soluble”. Regarding “MAHHHHHHMEAAAERCFQEGDLKGAACLYANLMVLYPQYTKMARMCRVLSNPLDVPLPYRYADVVEALLDPCVTYQTLFGTDAPPSVVRKAFQGWTLLVHPDKNPYPKAADAFNRLVAFKAAAMGTVDEGPPNAGGVNSKSSCRGNVRNRQRCTKRHGSANRANQSNQHSQLGDEIDMSLYELKKVQVTLKSLKRKNVDDSELPPLSAFLRPGGGARSRGGVDHSNNTKGSVPTPETQEGGSASLDESIPTSPRSCTADTACEPGLSQTIEAQLRSSEGATDAPYVLSELTPQQNEVVRGGKGLEGENTEEPLGLPTAGGHMQQYATNRNVGEVDNGSRVSLEADDSVQGPAKGIQNPDALPRRRGKHVDRLEGTCTGEFTQQSNQNSTCDTSSSEGLHSTTFNEDVPLVELAKLGIRELFDGIQKKINRDPIRLNCDLSFATYTRDKQKEVNEASVQSNDET”, the “soluble on expression in E. coli” value was “not soluble”. Regarding “MGSDKIHHHHHHMAGGSFMDDLRRGAGDLSVRASVREQDLNTYIMKVSCPARSGIVAAVSGYLARSGCNINDSSQFTDQETARFFMRLSFISEQGSGREALLDGFGSVAADFDMDYDIHDLSQKKKIVIMVSRFGHCLNDLLYRSRIGALPVEIVAVISNHLDYQKQVVNEDIPFHHIRVTPETKPEAEGAILQVVRDTGAELVVLARYMQVLSDQLCQEMSGRIINIHHSFLPSFKGANPYKQAYERGVRLIGATAHYVTADLDEGPIIEQDTIRVTHAQSGMDYVSLGRDVESQVLARAIHAHIHQRVFLNGNKTVVFPASPGEHVSERMG”, the “soluble on expression in E. coli” value is reported as “not soluble”. Take “MGSDKIHHHHHHMTYKPKYDNLMENPKIRRWFENLKAKSILTATVYRRTLGYYCELEKTTPEQLLTDMEKLEFRDNFLDFVRRLEKEGKAGSYIVRYKKVLRSWAKFNGIDIKLDVNIANENESPTLDNERVPSKEELSRLLRKATSRGRVSIPIMAFSGFRPETLGNYEGTDGLRLGDIKELKISDEIEFTKIPATIMVKTRLSKARNQYFSFIGEEGITYIKEYLEERKKNGEELTYESPLLQFDVRGTKKNDFMRTMLVTRDIREAITTAGLKMRPYVLRAYFSTALDIAESKGLISHPWRQFIMGHKGDIEARYSTNKRLPPDMIEEMRESYRKCLKFLETRISDVSEDNAKLFLQQQLLSAVGYKQEEIDKLDLSSVSNEDFQQLLRDKVAGAMSDNGAKQKVIPVNEIEQYISDGYDFEAVLPNGKAVMRLRF”: the “soluble on expression in E. coli” value is given as “not soluble”. In the case of “MPSEKEDDVMKNVTFAEGKKFGDWKIGKTIDEGGFGKVYIATSISDPKKVAALKAESNEIEGGSAIKLEAMILNKLNANGPVPHIPVVHLCAKRKLYCYMVMTLLGRNLRKLKSTNLVVNNGFSRGTWSRIGIQCLYALKYVHDNGFIHRDVKPQNFLLGNETDSERARIVHILDFGLARPFAVFHARENKWIARRARGTAEFRGTLRYTSPNVHLRKEQGRVDDVWSLLYVIIELNGGKALPWQTDSQRERVEQMKLNLPAKVVMSNMPACMDKVMPHLASLDYYQRPDYHMIFKCFWQVMENEKITPSSKYDWEKDEPDKSVPPASWENPAGPFFQSDPLGINAPPTPAEAALTEKSGKKHGKK”, the “soluble on expression in E. coli” value is on record as “soluble”. For the sequence “MGSDKIHHHHHHMNKTLVIGAAFVDVIVDVPKLPKTGDDIPGNLKSYVVGGSAFNVFGTLKHEKINTDLFVPVGEGNYANQIKEKMRELKIPIKLPVRGNDNGWDISFIEPGGERSFLTIQGIEQDWKTEWFKTININEYKYFYLSGYEMENENAGKVILKELQKRIPESLLLFDASPRISSISKTIIQKIMKKNVIINCNKEEANYFMPKGHSLEEKARRIYAKTESPVIVTLGSNGSYYYDGNDHIIPSEKKDKIINTIGAGDTHCGGILAGLNKDMSFKDSVILANRLSGLVVEKESGSL”, the “soluble on expression in E. coli” value was “not soluble”. As for “MGSDKIHHHHHHMDTQAFKQTLHKSDRYNRRGFGSANKRAQALAEAYQSGLIGSIRENGNLLEHGRLKVKLAEAFGFCWGVERSVAMAYETRKHYPNERIWITNEIIHNPSVNDHLRKMNVLFISEEKGVKDFSVVKDGDVVILPAFGATVQDMKLLHDRGCHIIDTTCPWVSKVWHTVEKHKKHTFTSIIHGKYKHEETLATSSFAGTYLVLFDLEEANYVSDYILGKGNREDFLKRFSKASSAGFDPDKDLQKVGVANQTTMLKSETEEIGRLFEKTMLQRFGPAQLNEHFLAINTICDATEERQGAMFSLVDEPLDLMVVIGGFNSSNTTHLQEIAISRGIRSFHIDTPERIGEETNTITHMPLEGGELLTEENFLQNGNISVGITSGASTPDRVVEDVIHKLMKIGENF”, the “soluble on expression in E. coli” value is on record as “not soluble”. In the case of “MGSDKIHHHHHHMQERGLVGLGLRREMLSEFCQQLPSAIDFLEVAPENWMTLGGKYGKQFRQLTEQHTFFCHGLSLSIGSPEPLDLEFVRRIKAFMDLHQIDVYSEHLSYCSGAGHLYDLMPIPFTEAAVKHVARRVKQVEDILYRPLILENVSFYAAPSAQMTELAFLTAVLEEADCKLLLDVNNIYVNSINHQYDALAFLKAMPTERIAYLHIAGHFKESEELLIDTHGSDINAPVWALLDSCYAEHGVLPTLLERDFNLPATAHLLDEINQIHAYQARAKSNLDKRIA” it was “not soluble”; in that of “GPGSMSHKRPQSSAGESNGAVDLKTPRFDPVSLGLPAEFQLTDYTRLKGCSCKLPQPKLLALLQELSATPGQKDVGMDCSIVPLHHTNSKGEALFLVSTTDFFFPSVSDPFLQGQIGAANVLSDLYSMGIPDCDTMLMLLAASTEMDEHERLITTREIMKGFAERARLATTTVTGGQTVMNPWPLIGGVAMAVVSEAEMVRPTGLLCAGDILVLTKPLGCQVAVNLKQWLLRPSPLYEEAIAGHISPEEIEELYNMATDSMRRLNREGARLMRKHGAHGATDVTGFGILGHANNFGAAQAVGDAPRSLCLVLERLPMFKTAVAASKQMNDKYRLLEGYSAETSGGLLVAFPSTTAAAAFCAELTAVDGGCPSWIVGHVEDRATNAVDGVYARLKDGYEIVEV”, “soluble”; in that of “MLTMSKAVESLQRFLMPKAGEPHDVRMLYLIESEHNNGRAMWNDRHSVAISAGDEVSFQTYFNAFPASYWRRWTQLDNVILRVEVTGTARVDVFRTKIDGASYAEQGQVVSDGVVEFDLSLAPFEDGGWLWFYVTAETDVTFKAGWYAPQAPQPQVMPDGSQVGPFDKRVTVGIPTFNRPTDAVAALTALSEDPEVDAVIDAVIMPDQGNKHPADEPGYKEATEHFGDRFFEFRQGNLGGSGGYSRIMYEALGGVDGTKPAGAAQSPYILYMDDDIAIEPDSVLRALQVARYAKSPILVGGQMLSLQERSHLHSMGEVVDRNIFMWTSAPFVHYDHDFAKYPLSDRPSPDAPSDRPKTEDLHRRIDVDYNGWWMCMIPRVVAEQIGQPLPLFIKWDDAEYGLRAGNAGFATATWPGVAIWHLAWSDKDDAIDWQAYFHLRNRLIVGAIENGNPAGMVRSMQKATLKHLLCLEYSTVAVQNEAMKDFLAGPSHLFDILETSLPHINALRKNYSDAVVLPSAADLPRPSGAPGVPTVYNLSGPLAPVKKVGWLLKGIKHTLSKENPQHHDVPQANLAPINARWFSLSRLDGATVSTADGRGVVYRKRDRAQAKELLQESYRLQKEVAANFDRLREEYRAAHKELTSREAWAKIFEEPQGAEES”, “not soluble”.

Source of the values: the DeepSol protein solubility set.
